Test results taken from patent US20190233528A1 (published 2019).
Read-outs that look alike come from different tables or passages of the source.

Columns and labels:
[1] = molecular target: T1, recombinant biotinylated human CD70 protein (human, UniProt P32970 39-193, biotinylated (site not stated)); experiment: flow cytometry: CAR-transduced Jurkat cells incubated with recombinant biotinylated human CD70, streptavidin-PE; percent of cells binding
T1 construct: also called recombinant biotinylated hCD70 protein
T1 sequence: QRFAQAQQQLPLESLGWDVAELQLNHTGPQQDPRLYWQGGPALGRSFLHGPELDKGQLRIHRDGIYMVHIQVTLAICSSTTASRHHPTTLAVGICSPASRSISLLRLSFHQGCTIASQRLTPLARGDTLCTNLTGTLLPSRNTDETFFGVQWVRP
Procedure: On Day 5, transduced cells were stained with human anti-CD69 antibody conjugated to PE-Cy7 and acquired on a flow cytometer to obtain percentage of CD69+ population for each CAR. […] Activation ratios (WT activation/KO activation) and protein binding were used to rank CARs.
Table 7: Activation ratio and protein binding of phage CARs were determined in the Jurkat screen. Activation ratio was used for in vitro characterization of CARs. Activation ratio was determined by calculating the ratio of the percentage of CD69 expression on WT Jurkat cells transduced with CD70 CAR (WT) to that on CD70 knockout Jurkat cells transduced with CD70 CAR (KO). A higher activation ratio indicates target-dependent activation. […] Protein binding values indicate the percentage of CD3+ CAR T cells that bind to human CD70 protein.

[2] = molecular target: T2, human CD70 expressed on parental (WT) Jurkat cells (human, UniProt P32970 1-193); experiment: cell-based or functional assay
T2 sequence: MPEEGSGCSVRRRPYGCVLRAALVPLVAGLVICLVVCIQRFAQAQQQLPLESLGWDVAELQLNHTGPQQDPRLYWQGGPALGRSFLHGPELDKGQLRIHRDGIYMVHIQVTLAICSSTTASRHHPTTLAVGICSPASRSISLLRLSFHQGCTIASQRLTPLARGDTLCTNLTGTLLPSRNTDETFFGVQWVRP

[3] = molecular target: T2, human CD70 expressed on parental (WT) …; experiment: cell-based or functional assay; remark: listed apart in the source

B1: P08E02 CD70-specific CAR (other)
chain: EVQLVQSGAEVKKPGESLKISCKGSGYSFTSSWIGWVRQMPGKGLEWMGIIYPGDSDTRYSPSFQGQVTISADKSISTAYLQWSSLKASDTAMYYCAKGLSQAMTGFGFDYWGQGTLVTVSSGGGGSGGGGSGGGGSGGGGSELDIQMTQSPSSLSASVGDRVTITCRASQSISRYLNWYQQKPGKAPKLLIYAASILQTGVPSRFSGSGSGTDFTLTISSLQPEDFATYYCQQSYSTTMWTFGQGTKVEIKTTTPAPRPPTPAPTIASQPLSLRPEACRPAAGGAVHTRGLDFACDIYIWAPLAGTCGVLLLSLVITLYCKRGRKKLLYIFKQPFMRPVQTTQEEDGCSCRFPEEEEGGCELRVKFSRSADAPAYQQGQNQLYNELNLGRREEYDVLDKRRGRDPEMGGKPRRKNPQEGLYNELQKDKMAEAYSEIGMKGERRRGKGHDGLYQGLSTATKDTYDALHMQALPPR
notes: Chimeric antigen receptor on transduced Jurkat cells; the signal peptide is left out
Protein binding (%) [1]: 57.1% | Activation ratio (WT/KO) [2]: 3.29

B2: P08F08 CD70-specific CAR (other)
chain: EVQLVQSGAEVKKPGESLKISCKGSGYGFTSYWIGWVRQMPGKGLEWMGIIHPDDSDTKYSPSFQGQVTISADKSISTAYLQWSSLKASDTAMYYCASSYLRGLWGGYFDYWGQGTLVTVSSGGGGSGGGGSGGGGSGGGGSELQSVLTQPPSASGTPGQRVTISCSGSSSNIGSNYVNWYQQLPGTAPKLLIYGDYQRPSGVPDRFSGSKSGTSASLAISGLRSEDEADYYCATRDDSLSGSVVFGTGTKLTVLTTTPAPRPPTPAPTIASQPLSLRPEACRPAAGGAVHTRGLDFACDIYIWAPLAGTCGVLLLSLVITLYCKRGRKKLLYIFKQPFMRPVQTTQEEDGCSCRFPEEEEGGCELRVKFSRSADAPAYQQGQNQLYNELNLGRREEYDVLDKRRGRDPEMGGKPRRKNPQEGLYNELQKDKMAEAYSEIGMKGERRRGKGHDGLYQGLSTATKDTYDALHMQALPPR
notes: as for B1
Protein binding (%) [1]: 35.9% | Activation ratio (WT/KO) [2]: 3.42

B3: P08G02 CD70-specific CAR (other)
chain: EVQLVQSGAEVKKPGESLKISCKGSGYTFPSSWIGWVRQMPGKGLEWMGIIYPDTSHTRYSPSFQGQVTISADKSISTAYLQWSSLKASDTAMYYCARASYFDRGTGYSSWWMDVWGQGTLVTVSSGGGGSGGGGSGGGGSGGGGSELDIQMTQSPSSLSASVGDRVTITCRASQSIYDYLHWYQQKPGKAPKLLIYDASNLQSGVPSRFSGSGSGTDFTLTISSLQPEDFATYYCQQSYTTPLFTFGQGTKVEIKTTTPAPRPPTPAPTIASQPLSLRPEACRPAAGGAVHTRGLDFACDIYIWAPLAGTCGVLLLSLVITLYCKRGRKKLLYIFKQPFMRPVQTTQEEDGCSCRFPEEEEGGCELRVKFSRSADAPAYQQGQNQLYNELNLGRREEYDVLDKRRGRDPEMGGKPRRKNPQEGLYNELQKDKMAEAYSEIGMKGERRRGKGHDGLYQGLSTATKDTYDALHMQALPPR
notes: as for B1
Protein binding (%) [1]: 77.8% | Activation ratio (WT/KO) [2]: 2.11

B4: P12B09 CD70-specific CAR (other)
chain: EVQLLESGGGLVQPGGSLRLSCAASGFTFSQYSMSWVRQAPGKGLEWVSAISGGGVSTYYADSVKGRFTISRDNSKNTLYLQMNSLRAEDTAVYYCASDISDSGGSHWYFDYWGQGTLVTVSSGGGGSGGGGSGGGGSGGGGSELDIQMTQSPSSLSASVGDRVTITCRASQYIGRYLNWYQQKRGKAPKLLIHGATSLASGVPSRFSGSGSGTDFTLTISSLQPEDFATYYCQQSYSTTSPTFGQGTKVEIKTTTPAPRPPTPAPTIASQPLSLRPEACRPAAGGAVHTRGLDFACDIYIWAPLAGTCGVLLLSLVITLYCKRGRKKLLYIFKQPFMRPVQTTQEEDGCSCRFPEEEEGGCELRVKFSRSADAPAYQQGQNQLYNELNLGRREEYDVLDKRRGRDPEMGGKPRRKNPQEGLYNELQKDKMAEAYSEIGMKGERRRGKGHDGLYQGLSTATKDTYDALHMQALPPR
notes: as for B1
Protein binding (%) [1]: 5.74% | Activation ratio (WT/KO) [2]: 4.34

B5: P12F02 CD70-specific CAR (other)
chain: EVQLLESGGGLVQPGGSLRLSCAASGFTFSSYAMSWVRQAPGKGLEWVSTISGTGGTTYYADSVKGRFTISRDNSKNTLYLQMNSLRAEDTAVYYCAKVRAGIDPTASDVWGQGTLVTVSSGGGGSGGGGSGGGGSGGGGSELQSVLTQPPSASGTPGQRVTISCSGSTSNIGRNYVYWYQQLPGTAPKLLIYRTNQRPSGVPDRFSGSKSGTSASLAISGLRSEDEADYYCAAWDDSLSGRVFGTGTKLTVLTTTPAPRPPTPAPTIASQPLSLRPEACRPAAGGAVHTRGLDFACDIYIWAPLAGTCGVLLLSLVITLYCKRGRKKLLYIFKQPFMRPVQTTQEEDGCSCRFPEEEEGGCELRVKFSRSADAPAYQQGQNQLYNELNLGRREEYDVLDKRRGRDPEMGGKPRRKNPQEGLYNELQKDKMAEAYSEIGMKGERRRGKGHDGLYQGLSTATKDTYDALHMQALPPR
notes: as for B1
Protein binding (%) [1]: 2.39% | Activation ratio (WT/KO) [2]: 12

B6: P12G07 CD70-specific CAR (other)
chain: EVQLLESGGGLVQPGGSLRLSCAASGFTFNNFAMSWVRQAPGKGLEWVSGISGSGDNTYYADSVKGRFTISRDNSKNTLYLQMNSLRAEDTAVYYCAKDRDIGLGWYSYYLDVWGQGTLVTVSSGGGGSGGGGSGGGGSGGGGSELQSVLTQPPSASGTPGQRVTISCSGSSSNIGSNYVYWYQQLPGTAPKPLIYMNNQRPSGVPDRFSGSKSGTSASLAISGLRSEDEADYYCAAWDDSLSAVVFGTGTKLTVLTTTPAPRPPTPAPTIASQPLSLRPEACRPAAGGAVHTRGLDFACDIYIWAPLAGTCGVLLLSLVITLYCKRGRKKLLYIFKQPFMRPVQTTQEEDGCSCRFPEEEEGGCELRVKFSRSADAPAYQQGQNQLYNELNLGRREEYDVLDKRRGRDPEMGGKPRRKNPQEGLYNELQKDKMAEAYSEIGMKGERRRGKGHDGLYQGLSTATKDTYDALHMQALPPR
notes: as for B1
Protein binding (%) [1]: 15.5% | Activation ratio (WT/KO) [2]: 11.6

B7: P13F04 CD70-specific CAR (other)
chain: QVQLVQSGAEVKKPGSSVKVSCKASGGTFSSYAISWVRQAPGQGLEWMGEIIPIFGTASYAQKFQGRVTITADESTSTAYMELSSLRSEDTAVYYCARAGWDDSWFDYWGQGTLVTVSSGGGGSGGGGSGGGGSGGGGSELQSVLTQPPSASGTPGQRVTISCSGSNSNIGTNYVSWYQQLPGTAPKLLIYRSSRRPSGVPDRFSGSKSGTSASLAISGLRSEDEADYYCAAWDGSLSGHWVFGTGTKLTVLTTTPAPRPPTPAPTIASQPLSLRPEACRPAAGGAVHTRGLDFACDIYIWAPLAGTCGVLLLSLVITLYCKRGRKKLLYIFKQPFMRPVQTTQEEDGCSCRFPEEEEGGCELRVKFSRSADAPAYQQGQNQLYNELNLGRREEYDVLDKRRGRDPEMGGKPRRKNPQEGLYNELQKDKMAEAYSEIGMKGERRRGKGHDGLYQGLSTATKDTYDALHMQALPPR
notes: as for B1
Protein binding (%) [1]: 37.5% | Activation ratio (WT/KO) [2]: 4.32

B8: P15D02 CD70-specific CAR (other)
chain: EVQLVQSGAEVKKPGESLKISCKGSGYSFASYWIGWVRQMPGKGLEWMGVIYPGTSETRYSPSFQGQVTISADKSISTAYLQWSSLKASDTAMYYCAKGLSASASGYSFQYWGQGTLVTVSSGGGGSGGGGSGGGGSGGGGSELDIQMTQSPSSLSASVGDRVTITCRASQSIDTYLNWYQQKPGKAPKLLIYSASSLHSGVPSRFSGSGSGTDFTLTISSLQPEDFATYYCQQSYSTTAWTFGQGTKVEIKTTTPAPRPPTPAPTIASQPLSLRPEACRPAAGGAVHTRGLDFACDIYIWAPLAGTCGVLLLSLVITLYCKRGRKKLLYIFKQPFMRPVQTTQEEDGCSCRFPEEEEGGCELRVKFSRSADAPAYQQGQNQLYNELNLGRREEYDVLDKRRGRDPEMGGKPRRKNPQEGLYNELQKDKMAEAYSEIGMKGERRRGKGHDGLYQGLSTATKDTYDALHMQALPPR
notes: as for B1
Protein binding (%) [1]: 62% | Activation ratio (WT/KO) [2]: 2.6

B9: P16C05 CD70-specific CAR (other)
chain: EVQLVQSGAEVKKPGESLKISCKGSGYSFTDYWIGWVRQMPGKGLEWMGMISPGGSTTIYRPSFQGQVTISADKSISTAYLQWSSLKASDTAMYYCAREMYTGGYGGSWYFDYWGQGTLVTVSSGGGGSGGGGSGGGGSGGGGSELDIQMTQSPSSLSASVGDRVTITCRASQSIGQSLNWYQQKPGKAPKLLIYGASSLQSGVPSRFSGSGSGTDFTLTISSLQPEDFATYYCQQSYSTPITFGQGTKVEIKTTTPAPRPPTPAPTIASQPLSLRPEACRPAAGGAVHTRGLDFACDIYIWAPLAGTCGVLLLSLVITLYCKRGRKKLLYIFKQPFMRPVQTTQEEDGCSCRFPEEEEGGCELRVKFSRSADAPAYQQGQNQLYNELNLGRREEYDVLDKRRGRDPEMGGKPRRKNPQEGLYNELQKDKMAEAYSEIGMKGERRRGKGHDGLYQGLSTATKDTYDALHMQALPPR
notes: as for B1
Protein binding (%) [1]: 70.8% | Activation ratio (WT/KO) [2]: 2.26

B10: 40E3 CD70-specific CAR (other)
chain: QVQLQESGPGLVKPSETLSLTCTVSGGSISSYYWNWIRQPPGKGLEWIGYIYYSGSTNYNPSLKSRVTISVDTSKNQFSLKLRSVTAADTAVYYCARDIRTWGQGTLVTVSSGGGGSGGGGSGGGGSGGGGSDIQMTQSPSSLSASVGDRVTITCRASQGISNYLAWFQQKPGKAPKSLIYAASSLQSGVPSKFSGSGSGTDFTLTISSLQPEDFATYYCQQYNSYPLTFGGGTKVEIKTTTPAPRPPTPAPTIASQPLSLRPEACRPAAGGAVHTRGLDFACDIYIWAPLAGTCGVLLLSLVITLYCKRGRKKLLYIFKQPFMRPVQTTQEEDGCSCRFPEEEEGGCELRVKFSRSADAPAYQQGQNQLYNELNLGRREEYDVLDKRRGRDPEMGGKPRRKNPQEGLYNELQKDKMAEAYSEIGMKGERRRGKGHDGLYQGLSTATKDTYDALHMQALPPR
Activation ratio (WT/KO) [3]: 2.09
